{"source": "patent US9739733B2", "about": "“Methods for monitoring tight clot formation” (T2 Biosystems, Inc., priority 2012, dated 2017)", "molecules": {"B1": {"name": "abciximab (antibody, chains of the INN, looked up, V domains shown)", "VH": "EVQLQQSGTVLARPGASVKMSCEASGYTFTNYWMHWVKQRPGQGLEWIGAIYPGNSDTSYIQKFKGKAKLTAVTSTTSVYMELSSLTNEDSAVYYCTLYDGYYVFAYWGQGTLVTVSA", "VL": "EIVLTQSPVTLSVTPGDSVSLSCRASRDISNNLHWFQQTSHESPRLLIKYASQSMSGIPSRFSGSGSGTDFTLSINSVETEDFGMYFCQQTNSWPYTFGGGTKLEIK", "modifications": "Fab"}, "B2": {"name": "Cathflo®: recombinant alteplase manufactured by Genentech (protein, UniProt P00750 36-562, looked up)", "Tissue-type plasminogen …": "SYQVICRDEKTQMIYQQHQSWLRPVLRSNRVEYCWCNSGRAQCHSVPVKSCSEPRCFNGGTCQQALYFSDFVCQCPEGFAGKCCEIDTRATCYEDQGISYRGTWSTAESGAECTNWNSSALAQKPYSGRRPDAIRLGLGNHNYCRNPDRDSKPWCYVFKAGKYSSEFCSTPACSEGNSDCYFGNGSAYRGTHSLTESGASCLPWNSMILIGKVYTAQNPSAQALGLGKHNYCRNPDGDAKPWCHVLKNRRLTWEYCDVPSCSTCGLRQYSQPQFRIKGGLFADIASHPWQAAIFAKHRRSPGERFLCGGILISSCWILSAAHCFQERFPPHHLTVILGRTYRVVPGEEEQKFEVEKYIVHKEFDDDTYDNDIALLQLKSDSSRCAQESSVVRTVCLPPADLQLPDWTECELSGYGKHEALSPFYSERLKEAHVRLYPSSRCTSQHLLNRTVTDNMLCAGDTRSGGPQANLHDACQGDSGGPLVCLNDGRMTLVGIISWGLGCGQKDVPGVYTKVTNYLDWIRDNMRP", "modifications": "alteplase", "notes": "recombinant alteplase manufactured by Genentech"}, "B3": {"name": "TPA: tissue plasminogen activator (protein, UniProt P00750 36-562, looked up)", "Tissue-type plasminogen …": "B2 Tissue-type plasminogen …"}}, "key": {"[1]": {"tested_on": "platelet activity in whole blood", "test": "T2 relaxation spectra / 3D plots of clotting whole blood spiked with abciximab", "type": "cell-based, human", "experimental": "T2 relaxation rate data was collected from CK blood samples drawn from healthy patients. For each sample, a series of T2 decay curves were measured over a period of 50 minutes. The decay curves were each processed using an Inverse Laplace Transform (ILT CONTIN) to provide an array of curves showing T2 intensity as a function of T2 time. […] FIG. 20 illustrates the 3D data sets for patient samples 29328 and 29350 collected on a Bruker minispec. […] At a time between 5 minutes and 30 minutes, the single water population diverged into two significant water populations. These two water populations correspond to the two components of the clot, i.e., the retracted clot and the serum surrounding the retracted clot. […] For some samples these two peaks were not entirely resolved. The correlation between the water populations and the components of the clotted sample was confirmed by separating the retracted clot from the surrounding serum and separately measuring the T2 data for these two components.\nIn a first experiment, four aliquots of patient sample 29488 were prepared with different concentrations of abciximab (0, 2, 4, and 8 μg/mL) prior to initiation of the clotting process. The T2 relaxation times for the four samples were measuring over the course of clot formation and the corresponding 3D plots were determined using the technique described in Example 13. […] This physical change is evidenced and quantified in the corresponding 3D plots (FIG. 21), showing fast exchange of water within the uniform sample at the highest concentration of abciximab.\nIn a second experiment, five aliquots of patient sample 29494 were prepared with different concentrations (0, 2, 4, 8, and 0 μg/mL) of abciximab prior to initiation of the clotting process. The T2 relaxations times for the samples were measured in series, with each set of measurements lasting approximately 50 min. […] The corresponding TEG-determined MA values for these samples was 60.7, 61.4, 30.4, and 22.0, respectively."}, "[2]": {"tested_on": "IIb/IIIa receptor of human platelets", "test": "TEG clot strength (MA) of whole blood spiked with abciximab", "type": "cell-based", "settings": "patient sample 29494", "experimental": "The clotting of a whole blood sample was perturbed using the antithrombotic agent abciximab (ReoPro®). Abciximab is the Fab fragment of a human-murine monoclonal antibody that binds to the IIb/IIIa receptor of human platelets and inhibits platelet aggregation. Abciximab serves to inhibit the retraction of a clot during the clotting process.\nSamples containing abciximab were prepared according to the following procedure and referenced in the application and Figures by a number corresponding to the concentration of abciximab in units of μg/mL.\n1. Blood was drawn from normal donors into six citrate tubes. Normal donors must not have taken aspirin or any anti-platelet drug in the past two weeks.\n2. The six tubes of blood were pooled and mixed gently by inversion eight to ten times. Samples were used within two hours of collection.\n3. A abciximab solution (10 mg/5 mL) was diluted at a ratio of 1:4 using saline as a diluent to form “solution 1.”\n4. The blood was spiked with solution 1 and saline according to Table 5\n5. The samples were allowed to sit for at least five minutes prior to running any sample in a T2reader or Bruker minispec.\nIn a second experiment, five aliquots of patient sample 29494 were prepared with different concentrations (0, 2, 4, 8, and 0 μg/mL) of abciximab prior to initiation of the clotting process. The T2 relaxations times for the samples were measured in series, with each set of measurements lasting approximately 50 min. The first sample tested and the final sample tested contained no added abciximab. The collected T2 decay curves were processed using Inverse Laplace Transforms, as described in Example 18. […] The difference in the curve shape between the first sample run and the final sample run, both of which contained no added abciximab, may be evidence of an effect of sample age on the T2 time distribution. The corresponding TEG-determined MA values for these samples was 60.7, 61.4, 30.4, and 22.0, respectively."}, "whole blood clot [3]": {"tested_on": "whole blood clot", "test": "T2Coagulation / TEG LY30 fibrinolysis in healthy patient blood", "type": "cell-based, human", "settings": "kaolin runs", "experimental": "Five different healthy patient samples were used to test whether T2Coagulation was sensitive to fibrinolysis. Addition of tissue plasminogen activator (TPA) was used to simulate fibrinolysis by adding it at two levels to healthy patient blood. TPA cleaves fibrin as it forms. It was observed that fibrinolysis can be detected within 10 minutes on T2Coagulation, which is less than half the time required for detection on TEG. For all five patients there was a clear difference between healthy and fibrinolytic samples.\nThere are several potential features that can be used for this correlation. Three that were investigated were the difference between (i) the minimum and maximum T2B values (FIG. 13), (ii) the average of the T2B values over the final 25 minutes of the T2B curves, and (iii) the T2B values at 10 minutes. All had correlations with R^2 values between 0.72 and 0.79. The correlation plots show a higher sensitivity of T2Coagulation for fibrinolysis than TEG. This can be seen by the groupings for the different levels of fibrinolysis in FIG. 13. The healthy patient samples are circled with the solid line. […] The T2Coagulation T2B term can be detected in as little as 10 minutes, which is much faster than the TEG LY30 term can be detected, indicating the utility of the T2Coagulation signal for more rapid measurement of fibrinolysis."}, "whole blood clot [4]": {"tested_on": "whole blood clot", "test": "T2MR whole blood fibrinolysis with spiked TPA", "type": "cell-based, human", "settings": "100 U/mL TPA, blood from a healthy donor", "experimental": "The T2MR surface is also sensitive to whole blood fibrinolysis. To assess this, healthy donor samples were spiked with tissue plasminogen activator (TPA).\nTPA was added at 100 U/mL to blood from a healthy donor. In the absence of TPA (see FIG. 27a) two stable peaks form at the expected clotting time. […] Both the instability and the distance between the final T2 peaks indicate sensitivity to fibrinolysis induced by the presence of TPA.\nThe T2MR effect on fibrinolysis was expressed in AU values (arbitrary units; see FIG. 27c) obtained by calculating the difference between the maximum and minimum T2 value observed for the clot signal (or T2B) in the T2 time curve.\nFibrinolysis was monitored by T2 magnetic resonance (T2MR) in five patient blood samples with and without the addition of TPA (100 U/mL) (FIG. 27c). […] All other samples required addition of TPA to induce fibrinolysis, as confirmed by the reference method."}}}
{"molecule": "B1", "values": [{"measurement": "clot associated and serum associated T2 signal", "setting": "[1]; 8 μg/mL Reopro®, T2reader", "value": "reduces the signal intensity of the clot associated signal and shifts the serum associated signal to lower T2 values"}, {"measurement": "distribution of T2 signals within the initial water population", "setting": "[1]; at 0.1 minutes, abciximab 2, 4, 8 μg/mL, patient sample 29494", "value": "narrower distribution of T2 signals"}, {"measurement": "retracted clot and serum water populations in 3D plot", "setting": "[1]; highest concentration of abciximab (8 μg/mL), patient sample 29488", "value": "no longer two phases visible within the clot"}, {"measurement": "TEG-determined MA", "setting": "[2]; abciximab 2 μg/mL", "value": 61.4}, {"measurement": "TEG-determined MA", "setting": "[2]; abciximab 4 μg/mL", "value": 30.4}, {"measurement": "TEG-determined MA", "setting": "[2]; abciximab 8 μg/mL", "value": 22.0}]}
{"molecule": "B2", "values": [{"measurement": "degree of fibrinolysis", "setting": "whole blood clot [3]; 60 ng/mL", "value": "partially fibrinolytic"}, {"measurement": "degree of fibrinolysis", "setting": "whole blood clot [3]; 118 ng/mL", "value": "fully fibrinolytic"}]}
{"molecule": "B3", "values": [{"measurement": "clot stability (T2MR peaks)", "setting": "whole blood clot [4]", "value": "unstable after 20-30 minutes"}]}
